From patent US9809645B2, “Anti-Staphylococcus antibody, method for manufacturing same, and usage of same” (priority 2013, dated 2017) come the findings set out here.

Counter-ions that a name gives are not always drawn.

For assay [1], the system named is Staphylococcus aureus strain MW2. Briefly: Community-acquired MRSA mouse pneumonia model, therapeutic. Type of assay: in vivo. Conditions: 1 mg into tail vein three days after nasal infection with 4×10^8 cells MW2; lungs five days after infection; BALB/c mice; compared to PBS group; Wilcoxon rank sum test; FIGS. 10 and 11. The protocol:
The Staphylococcus aureus strain MW2 was nasally administered, at 4×10^8 cells/40 μL PBS, to female 7-week-old BALB/c mice to allow the bacteria to infect the lungs. Three days later, 0.2 mL of a test sample (PBS, 1 mg anti-Staphylococcus antibody, 1 mg mouse IgG, 1 mg vancomycin hydrochloride (VCM)) was administered into the tail veins.
Five days after the Staphylococcus aureus administration (two days after the test sample administration), the lungs were extirpated, homogenized, and the resulting suspensions were applied to mannitol salt agar plates. They were cultured for 36 hours at 37° C. The number of colonies that appeared was counted, and was used as the number of lung infecting bacteria.

The test system of assay [2] is Staphylococcus aureus (protein A knock-out OS2 strain). Briefly: Staphylococcus aureus solid phase Cell-ELISA (live cells immobilized). It is filed as binding. Particulars: purified antibody; A405; FIG. 2. The protocol:
In order to detect antibodies actually capable of binding to an infectious Staphylococcus capable of growth, the binding of the anti-Staphylococcus antibodies was measured using Staphylococcus aureus solid phase Cell-ELISA in which live cells were immobilized onto a solid phase.
A protein A knock-out OS2 strain was grown in stationary culture for 16 hours at 30° C. in TSB, collected by centrifugation, washed three times using Dulbecco's phosphate buffered saline (-) (hereinafter “PBS”), and adjusted to a concentration of about A600=0.1.
This was dispensed at 100 μL for each well of a 96-well ELISA plate (Nunc, Maxisorp), and the well was left standing for 6 hours at 4° C. to coat the cells. After washing three times with PBS, 300 μL of 1% rabbit serum/PBS was added to each well, and the well was left standing for 16 hours at 4° C. to perform blocking. Furthermore, after washing three times with 0.05% Tween 20/PBS, 100 μL/well of an immunized mouse serum or hybridoma culture supernatant was added to each well, and the well was left standing for 2 hours at 30° C. After washing three times with 0.05% Tween 20/PBS again, 100 μL/well of a goat HRP-labelled F(ab′)2 anti-mouse IgG+IgM (BioSource) or a goat HRP-labelled F(ab′)2 anti-mouse IgG (γ) (KPL) was added as the secondary antibody to each well, and the well was left standing for 2 hours at 30° C. After washing three times with 0.05% Tween 20/PBS, 100 μL/well of ABTS was added to each well as the substrate to allow color to develop, and photometry at A405 was performed using a microplate reader to measure the amount of anti-Staphylococcus antibodies.
The binding affinity between an anti-Staphylococcus antibody and a Staphylococcus was examined by ELTSA reactivity.
Background: In an ELISA, binding on a coated surface is turned into a signal by an enzyme label.

The subject of assay [3] is Staphylococcus aureus strain MW2. Briefly: Community-acquired MRSA mouse pneumonia model, preventive. It is filed as in vivo. Conditions: 1 mg into tail vein one hour before nasal infection with 4×10^8 cells MW2; lungs four days after infection; BALB/c mice; compared to PBS group; Wilcoxon rank sum test; FIGS. 8 and 9. The method, then:
A 0.2 mL portion of a test sample (PBS, 1 mg anti-Staphylococcus antibody, 1 mg vancomycin hydrochloride (VCM)) was administered into the tail vein, and one hour after the administration, the Staphylococcus aureus strain MW2 was nasally administered at 4×10^8 cells/40 μL PBS to female 7-week-old BALB/c mice to infect the lungs. Four days after the infection, the lungs were extirpated, suspended using a homogenizer, applied to mannitol salt agar plates, and cultured for 36 hours at 37° C. The number of colonies that appeared was counted, and was defined as the number of lung infecting bacteria.

For assay [4] the test system is unchanged. Briefly: Community-acquired MRSA mouse sepsis model. It is filed as in vivo. Conditions: 1 mg antibody intraperitoneal with 8×10^8 cells MW2; female BALB/c mice; compared to PBS-administered group; Fisher's exact test; FIGS. 4 and 5. The protocol: The Staphylococcus aureus strain MW2, at 8×10^8 cells/0.5 mL PBS, and 0.2 mL of a test substance (PBS, 1 mg anti-Staphylococcus antibody, 1 mg mouse IgG) were administered to the peritoneal cavities of female 7-week-old BALB/c mice, and the number of surviving mice was determined.

Assay [5] has as its system Staphylococcus aureus strain VRS1. Briefly: Highly vancomycin-resistant MRSA mouse sepsis model. It is filed as in vivo. Particulars: 1 mg antibody intraperitoneal with 2-3×10^9 cells VRS1; female BALB/c mice; compared to PBS-administered group and VCM-administered group; Fisher's exact test; FIG. 7. The protocol:
The Staphylococcus aureus strain VRS1, at 2-3×10^9 cells/0.5 mL PBS, and 0.2 mL of a test sample (PBS, 1 mg anti-Staphylococcus antibody, 1 mg mouse IgG, 1 mg vancomycin hydrochloride (VCM)) were administered to the peritoneal cavities of female 7-week-old BALB/c mice, and the number of surviving mice was determined.

Take `CN[C@H](CC(C)C)C(=O)N[C@H]1C(=O)N[C@@H](CC(N)=O)C(=O)N[C@H]2C(=O)N[C@H]3C(=O)N[C@H](C(=O)N[C@H](C(=O)O)c4cc(O)cc(O)c4-c4cc3ccc4O)[C@H](O)c3ccc(c(Cl)c3)Oc3cc2cc(c3O[C@@H]2O[C@H](CO)[C@@H](O)[C@H](O)[C@H]2O[C@H]2C[C@](C)(N)[C@H](O)[C@H](C)O2)Oc2ccc(cc2Cl)[C@H]1O` [VCM, vancomycin hydrochloride, reference compound]: the “number of lung infecting bacteria (therapeutic)” value (shortened to “number … (therapeutic)”) in assay [1] is reported as “significantly reduced numbers of lung infecting bacteria”.

B1: ZBIA9H: anti-Staphylococcus monoclonal antibody; CDRs SEQ ID NOs: 17-22, variable regions SEQ ID NOs: 23 and 24 (antibody, listed as Mus musculus, V domains shown)
VH: EVQLVESGGGLVQPKGSLKLSCAASGFTFNTYAMNWVRQAPGKGLEWVARIRSKSNNYATYYADSVKDRFTIFRDDSQSILYLQLNNLKTEDTAMYYCVRRGGNPYYAMDYWGQGTSVTVSS
VL: QIVLSQSPAILSASPGEKVTMTCRASSSVSYMHWYQQKPGSSPKPWIYATSNLASGVPGRFSGSGSGTSYSLTISRVEAEDAATYYCQQWSSNPPTFGGGTKLEIK
Take B1: the “binding affinity to Staphylococcus aureus (ELISA reactivity, grouped by added concentration and reactivity)” value (from here on “binding affinity”) in assay [2] is listed as “moderate level of binding affinity”.

B2: ZBIA3H: antibody produced by hybridoma NITE BP-1366; heavy and light chain variable regions SEQ ID NOs: 15 and 16 (antibody, listed as Mus musculus, V domains shown)
VH: EVQLVESGGGLVQPKGSLKLSCAASGFTFNTYAMNWVRQAPGKGLEWVARIRSKSNNYATYYADSVKDRFTISRDDSQSMLYLQMNSLKTEDTAMYYCVRRGGNAIYYAMDYWGQGTSVTVSS
VL: QIVLTQSPAIMSASPGEKVTMTCSANSSVSYMHWYQQKSGTSPKAWIYDTSKLASGVPARFSGSGSGTSYSLTISSMEAEDAATYYCQQWSSNPPTFGSGTKLEIK
In the case of B2, the “binding affinity” value in assay [2] is recorded as “moderate level of binding affinity”. Moreover, the “number of lung infecting bacteria (preventive)” value in assay [3] is “significantly reduced numbers of lung infecting bacteria”. In addition, the “life-prolonging effect (number of surviving mice)” value in assay [4] and in assay [5] was “significant life-prolonging effects” each time. Besides, the “number … (therapeutic)” value in assay [1] is recorded as “significantly reduced numbers of lung infecting bacteria”.

B3: ZBIA5H: antibody produced by hybridoma NITE BP-1367; heavy and light chain variable regions SEQ ID NOs: 7 and 8 (antibody, listed as Mus musculus, V domains shown)
VH: QIQLVQSGPELKKPGETVKISCKASGYTFTDYSMHWVKQAPGKGLKWMGWINTETGEPTYADDFKGRFAFSLETSASTAYLQINNLKNEDTATYFCARPYYAMDYWGQGTSVTVSS
VL: DIQMTQSPSSLSASLGGKVTITCKASQDINKYIAWYQHKPGKGPRLLIHYTSTLQPGIPSRFSGSGSGRDYSFSISNLEPEDIATYYCLQYDNLLPWTFGGGTKLEIK
As for B3, the “binding affinity” value in assay [2] is “moderate level of binding affinity”. For the same molecule, the “number of lung infecting bacteria (preventive)” value in assay [3] is recorded as “significantly reduced numbers of lung infecting bacteria”. Moreover, the “life-prolonging effect (number of surviving mice)” value in assay [4] and in assay [5] was “significant life-prolonging effects” each time. Besides, the “number … (therapeutic)” value in assay [1] is reported as “significantly reduced numbers of lung infecting bacteria”.
